Test results from the supplement of paper PMC12764529.
± gives the half width of the 95% confidence interval.

Tests used:
[1] = folding stability dG unfold from chymotrypsin proteolysis; higher = more stable
Protocol: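 Folding stability of de novo designed mini-proteins (<80 aa, no Cys; designed by TrROS, TrMRF, ProteinMPNN and the joint model) was measured by cDNA display proteolysis with trypsin and chymotrypsin. Each protease was used at 11 concentrations in a threefold dilution series plus a no-protease condition. K50 was inferred by Bayesian fitting of sequencing counts, and dG unfold was derived against a sequence-predicted unfolded-state K50 (Tsuboyama et al. method). Sequences shown include variable-length N-terminal GS-type padding (SAGGSAGG...) inside a display construct carrying a PA tag. Rows were kept only if the AF2 dimer inter-PAE was >15, to exclude likely homo-oligomers.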

[2] = folding stability dG unfold (combined trypsin and chymotrypsin); higher = more stable
Procedure, shortened: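 Bayesian fitting of sequencing counts gave K50 for each design. Unfolding free energy followed by setting this against a sequence-predicted unfolded-state K50 and a shared folded-state K50, either per protease or with trypsin and chymotrypsin combined. The designs, under 80 residues and lacking cysteine, were digested in a PA-tagged cDNA display format at 11 threefold-diluted protease concentrations and without protease, and only those with AlphaFold2 dimer inter-PAE above 15 were kept.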

Sequence | folding stability dG unfold [1] | folding stability dG unfold [2]
SAGGSAGGSAGMVIKSPDGRIIEVEEEEEGEKLKIKRITYVGDKYTPSEEEIEVPPVDLKSAGGSAGGSAGG [r11_106_JUSTAS] | -0.201 ± 0.54 kcal/mol | < -1 kcal/mol
SAGGSAGGSAGMYDVGFIEAPKDTAYIKFPEINYIAEIKLDPKNGGFSLDEIKLYPLNTKSAGGSAGGSAGG [r11_352_TrMRF] | 0.521 ± 0.067 kcal/mol | 0.107 ± 0.11 kcal/mol
SAGGSAGGSAGNPKYVMVPLKFPDGNPVNIMVSDDEIHIYDMGPNKWRWIPADDLPPEAFSAGGSAGGSAGG [r11_155_TrROS] | 0.666 ± 0.15 kcal/mol | 0.215 ± 0.15 kcal/mol
SAGGSAGGSAGPPPMEPIFTFTNPKEPVTIYRSKDPGNYHIYDPPNGKERTIPPNDPNFFSAGGSAGGSAGG [r11_1007_TrROS] | -0.0661 ± 0.55 kcal/mol | < -1 kcal/mol
SAGGSAGGSAGPRVKFRFPGQEHTIPPGRRVYFGNGKKFDPGEPLDDIPPDNITPVEIEPSAGGSAGGSAGG [r17_511_TrROS] | -0.297 ± 0.18 kcal/mol | -0.609 ± 0.15 kcal/mol
SAGGSAGGSAGRKTLPMRNPNNGHEVTAEIEDENGKPIKIEAPMNSPEMRDMARDFAKKISAGGSAGGSAGG [r11_119_TrROS] | 0.355 ± 0.13 kcal/mol | -0.154 ± 0.18 kcal/mol
SAGGSAGGSAGRRSVPEEVVEAIAEELPREGLTPKSIEVVEGEDEFEAVIEYDDRTITVAGSAGGSAGGSAG [r3_395_JUSTAS] | 0.492 ± 0.023 kcal/mol | -0.101 ± 0.1 kcal/mol
SAGGSAGGSAGSMVTPVTLERYVYIEPTPDGVERKRVVPVKVKETVTVDAAGNVTTTTEVLLSAGGSAGGSA [r18_284_JUSTAS] | -0.871 ± 0.31 kcal/mol | < -1 kcal/mol
SAGGSAGGSAGSPNYIPKEVTIKVEGEGKPVEVKIKLTTSPEGKPASEEEILKKAEELLKSAGGSAGGSAGG [r17_373_JUSTAS] | 0.372 ± 0.058 kcal/mol | 0.0156 ± 0.34 kcal/mol
SAGGSAGGSAGSSSSAVRESFQKSPTNVVTRTVTTYDANPSVLSTSSTTVPLSSVPPELLSAGGSAGGSAGG [r11_493_JUSTAS] | 0.44 ± 0.13 kcal/mol | 0.00507 ± 0.15 kcal/mol
SAGGSAGGSAGSTTTRTVELPPGTSLEEVRARLEAEGYTGVVITEVERPPGPRLRVTVVGSAGGSAGGSAGG [r11_800_JUSTAS] | 0.293 ± 0.06 kcal/mol | -0.0782 ± 0.22 kcal/mol
SAGGSAGGSAGVVYPLAGRPVRIDTSATDSLVVTTEPPDGTRTTRTYPDMDLDEVLAALASAGGSAGGSAGG [r11_934_JUSTAS] | 0.639 ± 0.072 kcal/mol | 0.0129 ± 0.12 kcal/mol
SAGGSAGGSAGYKPDPDGQYTQEMRLPREPPRIRITIPMSPNDPDKAQKFINNLAEEFGISAGGSAGGSAGG [r17_501_TrROS] | -0.0614 ± 0.64 kcal/mol | -0.32 ± 0.32 kcal/mol
SAGGSAGGSAIKIETQGTPEEAREFAKDFANKNPELLENMKIDVITWRPPEPKYTPNGKPKSAGGSAGGSAG [r3_89_TrROS] | -0.104 ± 0.2 kcal/mol | -0.759 ± 0.24 kcal/mol
SAGGSAGGSAITIKELAKEGYTIEIRPPDGKKETFKPGDSVDDPAEEFDLPPNWRIEIRPPSAGGSAGGSAG [r3_216_TrROS] | -0.382 ± 0.3 kcal/mol | < -1 kcal/mol
SAGGSAGGSAKNTASLKKDDGFVAYNPKTGKYVAEVEVVKDDKDNIDLPLPNGDEVEIDAVGSAGGSAGGSA [r18_363_TrMRF] | -0.54 ± 0.42 kcal/mol | -0.846 ± 0.44 kcal/mol
SAGGSAGGSALLEEAGALAAARGWDVEVSPGPVVTVRSPAGREVTITREGDELTVTERELPGDRSAGGSAGG [r6_523_JUSTAS] | 0.466 ± 0.18 kcal/mol | -0.308 ± 0.35 kcal/mol
SAGGSAGGSALRPDEPFLVRVRIVDPRPGEGPPVERELVLPLEAILRLIPPGAGADVELLPSAGGSAGGSAG [r3_223_TrMRF] | -0.747 ± 0.94 kcal/mol | < -1 kcal/mol

Sequence | folding stability dG unfold [1] | folding stability dG unfold [2]
SAGGSAGGSAPKFDLRPEVFPLEDDSFLFVSRLLDPDKRLLTLVKVPPNGGLELGDVLLLDSAGGSAGGSAG [r3_165_TrMRF] | -0.176 ± 0.3 kcal/mol | -0.829 ± 0.33 kcal/mol
SAGGSAGGSASSVSSLSEETLPDGKPVLVRKETVYDPKHGLTGLSVTYYTLGGKKLKTEVVSAGGSAGGSAG [r3_154_JUSTAS] | -0.477 ± 0.26 kcal/mol | -0.698 ± 0.22 kcal/mol
SAGGSAGGSAVVYDENTAIVKTPNKDYLLKVKVGDTVDIPDSAGIPVPVKVEKDFPIPPSELSAGGSAGGSA [r18_244_JUSTAS] | -0.38 ± 0.12 kcal/mol | -0.943 ± 0.43 kcal/mol
SAGGSAGGSAWYIRIKSPELRKKLKNAGGIKPTEREPNWVTFKFPGMPPKKRDKIRELIKDSAGGSAGGSAG [r3_398_TrROS] | -0.644 ± 0.49 kcal/mol | -0.969 ± 0.26 kcal/mol
SAGGSAGGSGEPRTVLVEVLYDDKPVLIPVTADSEEALPEVARAAIEPLAEKYPHVEIPLPTESAGGSAGGS [r12_230_TrMRF] | 0.164 ± 0.11 kcal/mol | -0.66 ± 0.52 kcal/mol
SAGGSAGGSGSMSLSESPTSRTLTLTYPDSVVVTEYDPETGPPVTRFVSREDGVPVVYPAELLSAGGSAGGS [r12_632_JUSTAS] | -0.0818 ± 0.1 kcal/mol | -0.414 ± 0.09 kcal/mol
SAGGSAGGSGTSTSSSGPSTVTITLHTDSPVTLTVPPETTEELAAELKARGYNLEVKVTPAPASAGGSAGGS [r20_124_JUSTAS] | 0.161 ± 0.12 kcal/mol | -0.195 ± 0.11 kcal/mol
SAGGSAGGSGYPGLPMPVLRVRFAGDPEPVFIPVPADRPDVARAAAEELRALRPDVPVELELGSAGGSAGGS [r12_601_TrMRF] | 0.823 ± 0.045 kcal/mol | 0.107 ± 0.057 kcal/mol
SAGGSAGGSGYSVSVSEDFSSSPETRTVTTTTTSPSSGPLVTTTTTTTSPIPPRTPAEVAAAASAGGSAGGS [r12_841_JUSTAS] | 0.697 ± 0.029 kcal/mol | 0.327 ± 0.048 kcal/mol
SAGGSAGGSIKITLETETETYLDPEDPNRPVTKVKAVKPTIEVPEENPEKLKELAEKLGLELESAGGSAGGS [r12_249_TrMRF] | 0.723 ± 0.034 kcal/mol | 0.232 ± 0.1 kcal/mol
SAGGSAGGSKIKSITIDPEAGKVTIEVDKDTPPKPLPSVKTVEEKNDGYTVTFDVKDDEEILLSAGGSAGGS [r20_37_TrMRF] | 0.416 ± 0.086 kcal/mol | -0.39 ± 0.41 kcal/mol
SAGGSAGGSKMKKITIEVPTEEERKALEEAIKKGEPEVEITTKNGKKIKIKKIEIKEIKIEKKSAGGSAGGS [r12_334_TrROS_Hall] | 1.58 ± 0.14 kcal/mol | 0.758 ± 0.42 kcal/mol
SAGGSAGGSMKLGGKPIKRVESEPLPGPSRLFYIELEDKKIPVVLEGDKLLVSPELFEWEKEGSAGGSAGGS [r20_92_TrMRF] | 0.396 ± 0.22 kcal/mol | -0.0157 ± 0.2 kcal/mol
SAGGSAGGSMPEKKFKAEVVEEIEDPKTGKKFYFLKDTKQIFVENKDGSRTAITIDEDKLEIVSAGGSAGGS [r12_420_TrROS_Hall] | 0.433 ± 0.098 kcal/mol | 0.0252 ± 0.15 kcal/mol
SAGGSAGGSMTITVETTSKDPAVAEKELTEKVKKEYPPSVKVEIDPVSSPDGVARVRATIIRESAGGSAGGS [r20_122_JUSTAS] | 0.529 ± 0.09 kcal/mol | 0.291 ± 0.19 kcal/mol
SAGGSAGGSMTPVHVYVPPSLSPEEARARVRAELRAALPAAEADVPLEDVEVVLRPLPPDVPLSAGGSAGGS [r12_384_JUSTAS] | 0.303 ± 0.42 kcal/mol | < -1 kcal/mol
SAGGSAGGSMTTLRTRLKGDGTVEIEVYEPGRIRTITLPPSEVDKIPDVEDLPRYELEGDAPESAGGSAGGS [r12_343_JUSTAS] | 0.147 ± 0.21 kcal/mol | -0.514 ± 0.22 kcal/mol
SAGGSAGGSMTVTLSYPDGSTVTRPLEGKSLEEAIAALPEDVTEVQVTVLEGSTPVTRTVPRPSAGGSAGGS [r12_767_JUSTAS] | 0.731 ± 0.023 kcal/mol | 0.344 ± 0.054 kcal/mol
